Measurements published in the RNAGym collection of RNA variant scans (doi:10.1073/pnas.2313332121).

B1: TPR t1 (parent)
chain: GACCAAUCUGCCCUCAGAGCUCGAGAACAUCUUCGGAUGCAGAGGAGGCAGGCUUCGGUGGCGCGAUAGCGCCAACGUCCUCAACCUCCAAUGCAUCCCACCACAUGAUGAUGCCUGAAGAGCCUUGGUUUUUUG

Variants of: B1
Test: polymerase ribozyme fitness, log enrichment relative to wild type (log ratio); higher = more active; in vitro selection for triplet polymerase activity
In short: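 Both subunits of a heterodimeric triplet polymerase ribozyme were given their own mutant library, built by PCR and transcribed. Each library was annealed with a biotinylated primer, the partner subunit and triplets, incubated frozen at −7 °C, and its extended constructs gel-excised, captured on streptavidin beads and amplified by RT-PCR, all in one round done in triplicate. Fitness is the logarithm of genotype enrichment relative to wild-type enrichment, with replicates averaged by inverse-variance weighting. That logarithm is base 2, and Illumina-sequenced genotypes needed ≥10 input reads and ≥1 read per output.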

Row | Variant | polymerase ribozyme fitness (log ratio)
1 | C56G G93U G135U | -3.52
2 | C56G C70U C88U U106A U133A | -1.55
3 | C56U U87C | 0.555
4 | C56G A111U | -2.49
5 | C56A G117U | -2.01
6 | C56A G117A | -2.11
7 | C56A G117C | -3.44
8 | C56G C70G | -3.88
9 | C56G C70A | -3.64
10 | C56G G120U | -0.0956
11 | C56G G120A | 0.238
12 | C56A C94A | -1.2
13 | C56G C62U A105U U129C | -3.68
14 | G57A G58A U81A U106C | -2.54
15 | C56G U96G G120U | -1.41
16 | C56U C86U C89U U116G | -2.41
17 | C56U A100C U112C | 0.715
18 | C56G C124A U131A | 1.66
19 | C56G C70U U96A U132A | -3.39
20 | C56G C79G C124U | -0.0923
21 | C56A C82A C97U U129G | -2.1

Row | Variant | polymerase ribozyme fitness (log ratio)
22 | G57A C88U U112G | -2.79
23 | C56A U129C | -0.603
24 | C56A U129A | -1.22
25 | C56U U96A | -1.14
26 | C56U U96G | -0.658
27 | C56G G69U A100U U130C | -0.344
28 | C56U C73U U109A | -4.36
29 | C56A G69A U133C | -2.92
30 | C56A C73U C124U | 1.55
31 | C56U G65U C114U | -6.33
32 | C56G G117A | -2.32
33 | C56G G117C | -2.91
34 | C56G A90G G127C | -2.21
35 | C56G G69A | -2.86
36 | C56U C73G A90U | -3.53
37 | G57A A66U C115G | -4.64
38 | C56A C73A C124G U125C U126A | -2.94
39 | C56U C62A A75U U81C C114A U125G | -4.69
40 | C56U A90U U92A | -1.45
41 | C56U C101U | 0.177
42 | C56U C101A | -1.79

Row | Variant | polymerase ribozyme fitness (log ratio)
43 | C56G C79A | -1.17
44 | C56G C79A A83U A90C C114A | -7.42
45 | C56U C114G | -2.54
46 | C56U C114A | -1.27
47 | C56A G128U U129G | -0.991
48 | C56U G60A A68C C70U | -6.82
49 | C56G U109A | -4.28
50 | C56U C79A G113U | -4.28
51 | C56G U78G A121C | 1.64
52 | C56A G71U U81G A111C A119G G135A | -4.66
53 | C56U G135U | -1.18
54 | G57A C73U G110A | -2.06
55 | C56U C80G | -5.25
56 | C56U C64A | -7.74
57 | C56U C89G | -1.27
58 | C56G G71U G120A G127A | -4.03
59 | C56G C70U C88U U106A | -2.44
60 | C56G A68U | -6.1
61 | C56U U78C U106A G120A | 0.24
62 | G57A C73G G127C | -2.37
63 | C56U C73G C115U | -3.6

Row | Variant | polymerase ribozyme fitness (log ratio)
64 | C56U C115A | 0.248
65 | C56A C79G U87A | -1.58
66 | C56U C104G C115A | -4.93
67 | C56U U125C | -2.74
68 | C56G A66G C88U C115A | -1.71
69 | C56A G93U U112A U116G | -3.29
70 | C56U C89U U116C G127A G135U | -3.61
71 | C56U G120C G122U | 1.43
72 | C56G G93C | -1.86
73 | C56G G93A | -1.61
74 | C56G C72A G110U A111G | -2.87
75 | C56A U78C G93A C123U | 1.38
76 | C56A U130C | -0.155
77 | C56A C82A C88U | -0.846
78 | C56G G61A G77A | 0.026
79 | C56G A83U C115U | -2.71
80 | C56A G63A U78C | -4.18
81 | C56G G135C | -0.404
82 | C56U C72A G120A | -0.183
83 | C56G U87A | -1.33
